Legend:
Assay in all cases: cell-based or functional assay
[1] = biological target: HIV-1 Env of pseudovirus 191084 B7-19 (HIV-1)
[2] = biological target: HIV-1 Env of pseudovirus 235-47 (HIV-1)
[3] = biological target: HIV-1 Env of pseudovirus 263-8 (HIV-1)
[4] = biological target: HIV-1 Env of pseudovirus 3817.v2.c59 (HIV-1)
[5] = biological target: HIV-1 Env of pseudovirus 6480.v4.c25 (HIV-1)
[6] = biological target: HIV-1 Env of pseudovirus AC10.0.29 (HIV-1)
[7] = biological target: HIV-1 Env of pseudovirus BJOX028000.10.3 (HIV-1)
[8] = biological target: HIV-1 Env of pseudovirus C1080.c03 (HIV-1)
[9] = biological target: HIV-1 Env of pseudovirus CNE19 (HIV-1)
[10] = biological target: HIV-1 Env of pseudovirus CNE5 (HIV-1)
[11] = biological target: HIV-1 Env of pseudovirus CNE52 (HIV-1)
[12] = biological target: HIV-1 Env of pseudovirus CNE8 (HIV-1)
[13] = biological target: HIV-1 Env of pseudovirus Ce0393_C3 (HIV-1)
[14] = biological target: HIV-1 Env of pseudovirus Ce1176_A3 (HIV-1)
[15] = biological target: HIV-1 Env of pseudovirus Ce703010054_2A2 (HIV-1)
[16] = biological target: HIV-1 Env of pseudovirus Du172.17 (HIV-1)
[17] = biological target: HIV-1 Env of pseudovirus Du422.1 (HIV-1)
[18] = biological target: HIV-1 Env of pseudovirus HIV-001428-2.42 (HIV-1)
[19] = biological target: HIV-1 Env of pseudovirus PVO.4 (HIV-1)
[20] = biological target: HIV-1 Env of pseudovirus Q259.d2.17 (HIV-1)
[21] = biological target: HIV-1 Env of pseudovirus Q842.d12 (HIV-1)
[22] = biological target: HIV-1 Env of pseudovirus QH0692.42 (HIV-1)
[23] = biological target: HIV-1 Env of pseudovirus SC422661.8 (HIV-1)
[24] = biological target: HIV-1 Env of pseudovirus WITO4160.33 (HIV-1)
[25] = biological target: HIV-1 Env of pseudovirus ZM197M.PB7 (HIV-1)
[26] = biological target: HIV-1 envelope of pseudovirus 1054_07_TC4_1499 (HIV-1)
[27] = biological target: HIV-1 envelope of pseudovirus 3016.v5.c45 (HIV-1)
[28] = biological target: HIV-1 envelope of pseudovirus 3103.v3.c10 (HIV-1)
[29] = biological target: HIV-1 envelope of pseudovirus 3415.v1.c1 (HIV-1)
[30] = biological target: HIV-1 envelope of pseudovirus 6535.3 (HIV-1)
[31] = biological target: HIV-1 envelope of pseudovirus 6811.v7.c18 (HIV-1)
[32] = biological target: HIV-1 envelope of pseudovirus 9004SS_A3_4 (HIV-1)
[33] = biological target: HIV-1 envelope of pseudovirus A07412M1.vrc12 (HIV-1)
[34] = biological target: HIV-1 envelope of pseudovirus BJOX009000.02.4 (HIV-1)
[35] = biological target: HIV-1 envelope of pseudovirus C3347.c11 (HIV-1)
[36] = biological target: HIV-1 envelope of pseudovirus C4118.c09 (HIV-1)
[37] = biological target: HIV-1 envelope of pseudovirus CNE21 (HIV-1)
[38] = biological target: HIV-1 envelope of pseudovirus CNE5 (HIV-1)
[39] = biological target: HIV-1 envelope of pseudovirus Ce0393_C3 (HIV-1)
[40] = biological target: HIV-1 envelope of pseudovirus Ce0682_E4 (HIV-1)
[41] = biological target: HIV-1 envelope of pseudovirus Du172.17 (HIV-1)
[42] = biological target: HIV-1 envelope of pseudovirus HIV-0013095-2.11 (HIV-1)
[43] = biological target: HIV-1 envelope of pseudovirus HIV-16055-2.3 (HIV-1)
[44] = biological target: HIV-1 envelope of pseudovirus Q23.17 (HIV-1)
[45] = biological target: HIV-1 envelope of pseudovirus REJO4541.67 (HIV-1)
[46] = biological target: HIV-1 envelope of pseudovirus T251-18 (HIV-1)
[47] = biological target: HIV-1 envelope of pseudovirus T257-31 (HIV-1)
[48] = biological target: HIV-1 envelope of pseudovirus T278-50 (HIV-1)
[49] = biological target: HIV-1 envelope of pseudovirus X1193_c1 (HIV-1)
[50] = biological target: HIV-1 envelope of pseudovirus X1254_c3 (HIV-1)
[51] = biological target: HIV-1 envelope of pseudovirus ZM249M.PL1 (HIV-1)

PGT121 (antibody) gave an IC80 (TZM-bl neutralization) [1] of 0.128 µg/mL, an IC80 (TZM-bl neutralization) [2] of 1.68 µg/mL and an IC80 (TZM-bl neutralization) [3] of 24.6 µg/mL. It also gave an IC80 (TZM-bl neutralization) [4] greater than 50 µg/mL, an IC80 (TZM-bl neutralization) [5] of 0.079 µg/mL and an IC80 (TZM-bl neutralization) [6] of 0.169 µg/mL. For the same substance, the IC80 (TZM-bl neutralization) [7] was greater than 50 µg/mL, the IC80 (TZM-bl neutralization) [8] was greater than 50 µg/mL and the IC80 (TZM-bl neutralization) [9] was 0.189 µg/mL. For the same substance, the IC80 (TZM-bl neutralization) [10] was greater than 50 µg/mL, the IC80 (TZM-bl neutralization) [11] was 32.9 µg/mL and the IC80 (TZM-bl neutralization) [12] was greater than 50 µg/mL. For the same substance, the IC80 (TZM-bl neutralization) [13] was greater than 50 µg/mL, the IC80 (TZM-bl neutralization) [14] was 0.058 µg/mL and the IC80 (TZM-bl neutralization) [15] was greater than 50 µg/mL. For the same substance, the IC80 (TZM-bl neutralization) [16] was 0.89 µg/mL, the IC80 (TZM-bl neutralization) [17] was 0.131 µg/mL and the IC80 (TZM-bl neutralization) [18] was 0.156 µg/mL. For the same substance, the IC80 (TZM-bl neutralization) [19] was 0.945 µg/mL, the IC80 (TZM-bl neutralization) [20] was greater than 50 µg/mL and the IC80 (TZM-bl neutralization) [21] was 0.074 µg/mL. For the same substance, the IC80 (TZM-bl neutralization) [22] was 8.54 µg/mL, the IC80 (TZM-bl neutralization) [23] was 0.46 µg/mL and the IC80 (TZM-bl neutralization) [24] was 6.01 µg/mL. It also gave an IC80 (TZM-bl neutralization) [25] greater than 50 µg/mL, an IC50 (TZM-bl neutralization) [26] of 0.115 µg/mL and an IC50 (TZM-bl neutralization) [27] greater than 50 µg/mL. For the same substance, the IC50 (TZM-bl neutralization) [28] was 0.042 µg/mL, the IC50 (TZM-bl neutralization) [29] was greater than 50 µg/mL and the IC50 (TZM-bl neutralization) [30] was 0.008 µg/mL. It also gave an IC50 (TZM-bl neutralization) [31] of 0.004 µg/mL, an IC50 (TZM-bl neutralization) [32] of 0.008 µg/mL and an IC50 (TZM-bl neutralization) [33] of 0.001 µg/mL. For the same substance, the IC50 (TZM-bl neutralization) [34] was 3.63 µg/mL, the IC50 (TZM-bl neutralization) [35] was greater than 50 µg/mL and the IC50 (TZM-bl neutralization) [36] was greater than 50 µg/mL. The IC50 (TZM-bl neutralization) [37] was 0.02 µg/mL, the IC50 (TZM-bl neutralization) [38] was greater than 50 µg/mL and the IC50 (TZM-bl neutralization) [39] was greater than 50 µg/mL. It also gave an IC50 (TZM-bl neutralization) [40] greater than 50 µg/mL, an IC50 (TZM-bl neutralization) [41] of 0.115 µg/mL and an IC50 (TZM-bl neutralization) [42] greater than 50 µg/mL. It also gave an IC50 (TZM-bl neutralization) [43] of 0.444 µg/mL, an IC50 (TZM-bl neutralization) [44] of 0.01 µg/mL and an IC50 (TZM-bl neutralization) [45] of 3.61 µg/mL. It also gave an IC50 (TZM-bl neutralization) [46] greater than 50 µg/mL, an IC50 (TZM-bl neutralization) [47] greater than 50 µg/mL and an IC50 (TZM-bl neutralization) [48] greater than 50 µg/mL. It also gave an IC50 (TZM-bl neutralization) [49] of 0.045 µg/mL, an IC50 (TZM-bl neutralization) [50] of 0.056 µg/mL and an IC50 (TZM-bl neutralization) [51] greater than 50 µg/mL.

From patent US12338277
